Reference: the nanobody polyreactivity screen of Harvey et al. (2022)

Test: yeast display, Sf9 membrane polyspecificity reagent, FACS + sequencing; frameworks hold sequencing errors
Procedure, shortened: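 Genes from sorted yeast were amplified by colony PCR, read by MiSeq 2 × 250 sequencing and filtered on CDR length. These cells carried a synthetic nanobody library in Saccharomyces cerevisiae BJ5465 and were sorted by FACS into low and high (top ~1%) gates on anti-HA and streptavidin fluorescence. Polyreactivity is labelled according to the gate of origin.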

Sequence | polyreactivity (PSR sort gate)
QVQLVESGGGLVQAGGSLRLSCAASGFTFRKYVMGWYRQAPGKERELVAGISRSGSRTYYADSVKGRFTISRDNAKNTVYLQMNSLKPEDTAVYYCAADAAHSEYDYWGQGTQVTVSS | high polyreactivity
QVQLVESGGGLVQAGGSLRLSCAASGFTFRPYAMGWYRQAPGKERELVAAISTSGATTYYADSVKGRFTISRDNAKITVYLQMNSLKPEDTAVYYCNKVYWHHPWEYGYWGQGTQVTVSS | high polyreactivity
QVQLVESGGGLVQAGGSLRLSCAASGFTFRQYAMGWYRQAPGKERELVAAISRSGSRTYYADSVKGRFTISRDNAKNTVYLQMNSLKPEDTAVYYCAARSYYNGKISRVGYWGQGTQVTVSS | high polyreactivity
QVQLVESGGGLVQAGGSLRLSCAASGFTFRRNAMGWYRQAPGKERELVAAITYNGGTTYYADSVKGRFTISRDYAKNTVYLQMNSLKPVDTAVYYCNAPYGRQGYDYWGQGTQVTVSS | low polyreactivity
QVQLVESGGGLVQAGGSLRLSCAASGFTFRRNAMGWYRQAPGKERELVAVITSSARTNYADSVKGRFTISRDNAKNTVYLQMNSLKPEDTAVYYCNAYRYRQSSSDKYGYWGQGTQVTVSS | high polyreactivity
QVQLVESGGGLVQAGGSLRLSCAASGFTFRRNTMGWYRQEPGKERELVAAITQRGGSTYYADSVKGRFTISRDNAKNTVYLQMNSLKPEDTAVYYCAVERHSYIYKYDYWGQGTQVTVSS | high polyreactivity
QVQLVESGGGLVQAGGSLRLSCAASGFTFRRYALGWYRQAPGKERELVAGITGRGGSTYYADSVKGRFTISRDNAKNTVYLQMNSLKPEDTAVYYCNKPRAARGYMTGQLDYWGQGTQVTVSS | high polyreactivity
QVQLVESGGGLVQAGGSLRLSCAASGFTFRRYAMGWYRLAPGKERELVAAISQSGGRTYYADSVKGRFTISRDNAKNTVYLQMNSLKPEDTAVYNFAKDAAGGRHYDYWGQGTQVTVSS | high polyreactivity
QVQLVESGGGLVQAGGSLRLSCAASGFTFRRYAMGWYRQAPGKEREFVAAITRSSGRTYYADSVKGRFTISRDNAKNTVYLQMNSLKPEDTAVYYCNRDTSIRHYNYWGQGTQVTVSS | high polyreactivity
QVQLVESGGGLVQAGGSLRLSCAASGFTFRRYAMGWYRQAPGKERELVAAISNGGSTYYADSVKGRFTISRDNAKNTVYLQMNSLKPEDTAVYYCAADIYSYFWWPYYYWGQGTQVTVSS | high polyreactivity
QVQLVESGGGLVQAGGSLRLSCAASGFTFRRYAMGWYRQAPGKERELVAAITRDDSTNYADSVKGRFTISRDNAKNTVYLQMNSLKPEDTAVYYCAARLWYPYYYWGQGTQVTVSS | high polyreactivity
QVQLVESGGGLVQAGGSLRLSCAASGFTFRRYAMGWYRQAPGKERELVATITIGGSTSYADSVKGRFTISRDNAKNTVYLQMNSLKPEDTAVYYCAAVANPNRYRFDYWGQGSQVTVSS | high polyreactivity
QVQLVESGGGLVQAGGSLRLSCAASGFTFRRYAMGWYRQAPGKERVLVAAISRGGSSTYYADSVKGRFTISRDNAKNTVYLQMNSLKPEDTAVYYCNARTYVALGFNYWGQGTQVTVSS | high polyreactivity
QVQLVESGGGLVQAGGSLRLSCAASGFTFRRYDMGWYRQAPGKERELVATINRGGSTDYADSVKGRFTISRDNAKNTVYLQMNSLKPEDNAVYYCAADSYSTCADDYWGQGTQVTVSS | high polyreactivity
QVQLVESGGGLVQAGGSLRLSCAASGFTFRRYTMGWYRQAPGKERELVAAISRSGGSTFYADSVKGRFTISRDYAKNTVYLQMNSLKPEDTAVYYCNAGRTYTALNGDYWGQGTQVTVSS | high polyreactivity
QVQLVESGGGLVQAGGSLRLSCAASGFTFRSYAMGWYRQAPGKERELVASISWSGTSTYYADSVKGRFTISRDNAKNTVYLQMNSLKPEDTAVYYCNKYPSFYGAGYYWGQGTQVTVSS | high polyreactivity

Sequence | polyreactivity (PSR sort gate)
QVQLVESGGGLVQAGGSLRLSCAASGFTFRSYAMGWYRQAPGKERELVAVISSSGGSTYYADSVKGRFTISRDNAKNTVYLQMNSLKPEDTAVYYCNRRPATRAYLYDYWGQGTQVTVSS | high polyreactivity
QVQLVESGGGLVQAGGSLRLSCAASGFTFRTNAMGWYRQAPGKERELVAAISTGARTYYADSVKGRFTISRDNAKNTVYLQMNSLKPEDTAVYYCNKVLRRFLSRYDYWGQGTQVTVSS | high polyreactivity
QVQLVESGGGLVQAGGSLRLSCAASGFTFRTNLMVWYRQAPGKERELVAVITRDGGSTYYADSVKGRFTISRDHAKNTVYLQINSLKPEDTAVYYCNAAAFINFILYDYWGQGTQVTVSS | high polyreactivity
QVQLVESGGGLVQAGGSLRLSCAASGFTFRTYAMGWYTQAPGKERELVADISGSGGSTYYADSVKGRFTISRDNAKNTVYLQMNSLKPEDTAVYYCAADYASWSNWGYEYWGQGTQVTVSS | high polyreactivity
QVQLVESGGGLVQAGGSLRLSCAASGFTFRTYGMGWYSQAPGKERELVAAISRSSATTYYADSVKGRFTISRDNAKTTVYLQINSLKPEDTAVYYCNAGDLGRRWGMDYSGQGTQVTVSS | low polyreactivity
QVQLVESGGGLVQAGGSLRLSCAASGFTFRVYAMGWYRQAPGKERDLVAPISLRGDRTYYADSVKGRFTISRDYAKNTEYLQMNRLKPEDTAVYYCHAYASYQISQDDYDYWGQGTQVTVSS | high polyreactivity
QVQLVESGGGLVQAGGSLRLSCAASGFTFRVYAMGWYRQAPGKERELVAAISSGGSTNYADSVKGRFTISRDNAKNTVYLQMNSLKPEDTAVYYCAARQRYYSERPQYSGFYYWGQGTQVTVSS | high polyreactivity
QVQLVESGGGLVQAGGSLRLSCAASGFTFRVYAMGWYRQAPGKERELVAAITSGSSTTYADSVKGRFTISRDNAKNTVYLQLNSLKPEDTAVYYCNARRRGRVTGSYGYWGQGTQVTVSS | high polyreactivity
QVQLVESGGGLVQAGGSLRLSCAASGFTFRWNAMGWYRQAPGKERELVAAITNDDSTYYADSVKGRFTISRDNAKNTVYLQMNSLKPEDTAVYYCNARYGRYLDLDTGVALAGRGYWGQGTQVSVSS | low polyreactivity
QVQLVESGGGLVQAGGSLRLSCAASGFTFRWYAMGWYRQEPGKERELVAAITSSGGRTYYADSVKGRFTISRDNAKNTVYLQMNSMKPEDTAVYYCATDLRTRKYDYWGQGTQVTVSS | high polyreactivity
QVQLVESGGGLVQAGGSLRLSCAASGFTFRWYTMGWYRQAPGKERELVASIRYGGGSTYYADSVKGRFTISRDNAKNTVYLQMNSLNPEDTAVYYCAAESAWTSPYDYWGQGTQVTVSS | high polyreactivity
QVQLVESGGGLVQAGGSLRLSCAASGFTFRYNAMGWYRQAPGKERELVAAISSDGITSYADSVKGRFTISRDNAKNTVYLQMNSLKPEDTAVYYCAADWRWYSAWHFGYWGQGTQVTVSS | high polyreactivity
QVQLVESGGGLVQAGGSLRLSCAASGFTFRYNAMGWYRQAPGKERELVAAISSRGGSTYYADSVKGRFTISRDNAKNTVYLQMNSLKPEDTAVYYCALYGGLGDRFRPRYYWGQGTQVTVSS | high polyreactivity
QVQLVESGGGLVQAGGSLRLSCAASGFTFRYNAMGWYRQAPGKERELVATISWRGTSTYYADSVKGRFTISRDNAKNTVYLQMNSLKPEDTAVYYCATRSRDQYSVSYRLDYWGQGTQVTVSS | low polyreactivity
QVQLVESGGGLVQAGGSLRLSCAASGFTFRYNAMGWYRQAPGKKGSWVAAISRTGGSTYYADSVKGRFTISRDNAKNTVYLQMNSLKPEDTAVYYCARAPEGTGGKYGYWGQGTQVTVSS | high polyreactivity
QVQLVESGGGLVQAGGSLRLSCAASGFTFRYYAMGWYRPAPGKERELVAAISWSGGSTYYADSVKGRFTISRDNAKNTVYLQMYTLIPEDTAVYDCNAAWPGYISNRLGYDYWGQGTQVTVSS | high polyreactivity
